We go through 7 substances from PMC10545826.

The target of assay [1] is human FcγRIIIa (CD16a) V158 (human). Nature of the assay: SPR; Biacore 8K; His-tagged FcγRIIIa captured (aimed 60 RU) by anti His-tag antibody immobilised on a CM5 chip; antibody samples as analytes (360 to 22.5 nM for the trastuzumab samples); PBS with 0.005% Tween-20; global fit, 1:1 Langmuir model; measured at 21-29 °C, the temperature of Table S1 not given. For orientation: Surface plasmon resonance follows binding to a sensor surface in real time, without labels.

For assay [2] the target is unchanged. Nature of the assay: SPR; Biacore 8K; His-tagged FcγRIIIa captured (aimed 60 RU) by anti His-tag antibody on a CM5 chip; antibody samples as analytes (trastuzumab samples 360 to 22.5 nM); PBS with 0.005% Tween-20; 1:1 Langmuir global fit; temperature of the printed KD not stated (measured at 21-29 °C).
The target is the same in assay [3]. Nature of the assay: SPR; van't Hoff analysis of the temperature dependence of KD (21, 23, 25, 27, 29 °C), parameters at 25 °C; FcγRIIIa captured by anti His-tag antibody, antibody as analyte; PBS with 0.005% Tween-20.
Assay [4] shares this target. The assay can be described thus: SPR.
Target sequence in this assay (P08637 17-208 F176V): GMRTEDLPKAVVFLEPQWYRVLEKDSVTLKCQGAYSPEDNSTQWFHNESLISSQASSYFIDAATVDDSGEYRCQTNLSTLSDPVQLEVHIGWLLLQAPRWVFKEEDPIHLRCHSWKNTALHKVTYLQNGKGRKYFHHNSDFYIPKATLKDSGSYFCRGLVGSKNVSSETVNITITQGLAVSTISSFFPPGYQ

A word on the koff: it is the first-order rate constant of dissociation. The low end stands for a long-lived complex, the high end for a short-lived complex. One may read the kon as the rate constant with which the complex forms. A lower kon goes with slower complex formation. One may read the Kd as the equilibrium constant for the complex coming apart. In assay [1], “Rituximab (Rituxan), an anti CD20 human antibody” came in with a koff of 0.0331 s⁻¹ and a kon of 540000 M⁻¹ s⁻¹. In assay [2], this substance displayed a Kd of 61.4 nM.

With “Trastuzumab (anti-HER2 humanized IgG1) (antibody)”, in assay [1], the koff amounted to 0.0281 s⁻¹ and the kon stood at 550000 M⁻¹ s⁻¹. The substance further yielded a Kd in assay [2] of 51 nM. In assay [3], this substance returned a dH of -35.9 kcal/mol.

In turn, afucosyl rituximab came in with a Kd in assay [4] of 10.9 nM.

With afucosyl rituximab (antibody), in assay [1], the koff was 0.0108 s⁻¹ and the kon came out at 990000 M⁻¹ s⁻¹. The fold increase of affinity relative to rituximab in assay [2] stood at 22 fold.

Substance divalent DOTA-conjugated trastuzumab displayed a Kd in assay [4] of 3.6 nM.

In assay [1], “divalent DOTA-conjugated trastuzumab (antibody)” returned a koff of 0.0089 s⁻¹ and a kon of 2.46e+06 M⁻¹ s⁻¹.

In the case of “monovalent DOTA-conjugated trastuzumab (antibody)”, in assay [1], the Kd was found to be 12.2 nM, the koff turned out to be 0.0116 s⁻¹ and the kon stood at 950000 M⁻¹ s⁻¹.
